Common to all, as to assay type: cell-based, human
The test system of assay [1] is TCF. Kind of assay: TCF activity (TOP-Flash TCF luciferase reporter). The method, then: Cells were plated at 5×10^3 cells per well and grown overnight in 12-well plates. Then, cells were transiently transfected with TOP-Flash TCF reporter plasmid (Millipore) using poly-jet transfection reagent (SignaGen). At 48 h post transfection, cells were treated with 20 µg/mL Anti-EpCAM EpAb2-6 (Produced in house) or MT201 (Produced in house) for 6 h or 400 ng/mL LGK974 (MedChemExpress) for 9 h or the combination, as indicated. In addition, cells were treated with EpEX (Produced in house by Expi293 Expression System) or recombinant Wnt3A (R & D systems) or the combination for 8 h. Finally, cells were lysed, and the luciferase assay was performed.
The cells were seeded in 24-well plates (1×10^4 cells/well) and incubated at 37° C. for 24 h. The culture media were refreshed, and the cells were transfected with respective reporter plasmids (TCF reporter or Wnt receptor promoter reporter) by PolyJET (SignaGen). The transfected efficiency was normalized by co-transfected with pRL-TK (20 ng) as an internal control. Additional treatments were conducted as indicated. Firefly luciferase and Renilla luminescence were measured 48 h post-transfection using the Dual-Glo Luciferase Assay System (Promega), according to the manufacturer's recommendations.
In general terms: Reporter assays use an easily measured gene product as a stand-in for the process of interest.

Assay [2] has as its system HT29 and SW620 cells. Kind of assay: Colony formation assay. The conditions noted are these: for colony formation capacity: SW620 cells, exogenous Wnt3A, EpEX or combination. The method, then: Cells were seeded in 12-well plate (5×10^3 cells per well) and treated with 20 µg/mL mEpAb2-6, hEpAb2-6 or MT201 (Produced in house) or 400 ng/mL LGK974 (MedChemExpress) or combination as indicated in which case the elements were directly added to the culture medium. The medium along with the treatment component were changed in every alternating day and the cells were allowed to grow for 10 days. On the tenth day, cells were washed and fixed with 4% paraformaldehyde and further stained with 1% crystal violet for 30 min. Colonies were washed 3 times with PBS, and images were taken. Furthermore, to measure colony density, the wells were incubated with 0.5% SDS shaking for 2 h at RT. The supernatants were collected, and the absorbance of the solution was taken at 570 nm using a microplate reader.

Assay [3] concerns active β-Catenin. Kind of assay: Nuclear translocation of β-Catenin (immunofluorescence staining; cell fractionation with western blot). How it is done: Cells (1×10^6) were seeded overnight and further allowed to grow in serum free conditions. Then cells were further treated with 20 μg/mL mEpAb2-6 or hEpAb2-6 or MT201 for 6 h or with 400 ng/mL LGK974 (MedChemExpress) for 9 h or combination as indicated. Samples were fractioned into cytosol and nuclear extracts using nuclear/cytosol fractionation kit (Biovision) according to the manufacturer's protocol. The fractions were then subjected to western blot analysis.
(§1) For western blotting, cells were extracted using radioimmunoprecipitation assay (RIPA) buffer [(0.01 M sodium phosphate, pH 7.2), 150 mM NaCl, 2 mM EDTA, 50 mM NaF, 1% Nonidet P-40, 1% sodium deoxycholate, and 0.1% SDS)] containing phosphatase inhibitor (Roche) and protease inhibitor (Roche) cocktail. Equal amounts of protein were separated by SDS-PAGE and then transferred to PVDF membranes. The membranes were blocked with 3% BSA in TBST (Blocking solution) and incubated with necessary primary antibodies in the blocking solution overnight at 4° C. Membranes were then incubated with HRP-conjugated secondary antibodies in the blocking solution for 1 h at room temperature, and protein expression were detected. Antibodies used: anti-α-tubulin (Sigma), anti-EpCAM (abeam), anti-Active β-Catenin (Millipore), anti-total β-Catenin (abeam), anti-Frizzled 6 (CST), anti-Frizzled 7 (Santa Cruz Biotech), anti-LRP5 (abcam), anti-Phospho-LRP5 (abcam), anti-Phospho-LRP6 (CST), anti-LRP6 (CST) and anti-EpEX antibody EpAb3-5 (Produced in house), anti-ADAM17 (abcam), anti-phopho-ADAM17 (abcam), anti-Presenilin2 (abcam), anti-phospho-Presenilin2 (S327) (abcam), anti-phospho-Presenilin2 (S330) (abcam) and anti-Axin2 (CST).
Glass slides were used in 24-well plates and coated with 0.1% gelatin. Further, 3×10^4 cells were seeded in serum free medium overnight. Cells were treated with 20 μg/mL EpAb2-6 for 6 h, or 400 ng/mL LGK974 (MedChemExpress) for 9 h or the combination. Cells were washed using ice-cold PBS and fixed with 4% paraformaldehyde for 15 min at RT and washed with ice-cold PBS. Further, cells were permeabilized using 0.1% triton-X in PBS for 20 min and subsequently washed with PBS. Cells were blocked with 3% BSA in PBS for 1 h at RT. Next, cells were treated with primary antibody anti-Active β-Catenin (Millipore) overnight. Then, cells were washed and treated with secondary antibody in 3% BSA containing PBS along with DAPI for 1 h at RT. Samples were then washed in PBS five times and mounted for microscopy. Nuclear β-Catenin intensities were calculated using IMARIS (Oxford Instruments) software.
For orientation: A western blot detects proteins with antibodies after separation by electrophoresis.

The test system of assay [4] is HCT116, HT29 and SW620 cells. The experiment in a line: Tumorsphere assay. To be noted: for sphere formation capacity: SW620 cells, exogenous Wnt3A, EpEX or combination. How it is done:
Cells were seeded in ultra-low adherent 6-well plates (5×10^4 cells per well) or 24-well plates (1×10^3 cells per well) and maintained in DMEM/F-12 supplemented with B27. Further, cells were treated with 20 μg/mL mEpAb2-6, hEpAb2-6 or MT201 (Produced in house), or 400 ng/mL LGK974 (MedChemExpress) or the combination, by direct addition to the culture medium. The entire culture medium, including the treatment component, was changed in every other day. Cells were cultured for 10 days, and on 10th day, spheres were counted and photographed under the microscope.

Assay [5] deals with Wnt receptors (FZD6/7, LRP5/6). Kind of assay: Wnt receptor protein and mRNA expression (western blot, qPCR). The conditions noted are these: HCT116 cells. How it is done:
as §1
(§2) Total RNA was extracted using TRI reagent and 5 μg of the total RNA was further reverse-transcribed using oligo (dT) primer with reverse transcriptase. Quantitative real time RT-PCR (qPCR) was performed on cDNA using the Light Cycler 480 SYBR Green-I Master kit and the LightCycler480 System. The gene expression levels of each sample were normalized to the expression levels of glyceraldehyde 3-phosphate dehydrogenase (GAPDH) or β-actin.

Assay [6] has as its system LRP5/6. The experiment in a line: Phosphorylation of LRP5/6 (western blot). The method, then: as §1
Assay [7] deals with Oct4, Sox2 and c-Myc. Kind of assay: Stemness (pluripotency) factor expression (western blot, qPCR). To be noted: HT29 cells. The method, then: as §1, §2
Where [8] appears, read: wild-type SW620 and HCT116 cells, EpEX, recombinant Wnt3A or the combination for 8 h.
[9] abbreviates: EpEX, Wnt3A or combination, protein and mRNA level.
Setting [10] is: EpCAM-knockout cells, exogenous EpEX, LGK974 or both.
The mark [11] stands for this setting: HCT116 cells, exogenous EpEX, Wnt3A or combination.
The mark [12] stands for this setting: wild-type HCT116 cells, EpEX, recombinant Wnt3A or both.

In the case of “MT201: adecatumumab, a human anti-EpCAM antibody that was subjected to clinical trials [reference compound]”, the TCF activity result in assay [1] (HT29 cells, 20 µg/mL antibody for 6 h) is reported as “did not show any significant effects”. Also, the “ability to inhibit colony formation” value in assay [2] (comparison of EpAb2-6 with MT201, 20 g/mL) is reported as “shows no activity”. Also, in assay [3] (HT29 cells, 20 μg/mL hEpAb2-6 or MT201 for 6 h), the “nuclear translocation of β-Catenin” value was “did not show any significant effects”. Besides, the “ability to inhibit sphere formation” value in assay [4] (comparison of EpAb2-6 with MT201, 20 μg/mL) is given as “shows no activity”.

B1: EpAb2-6: anti-EpCAM (EpEX) neutralizing monoclonal antibody produced in mice by hybridoma; VH SEQ ID NO: 15, VL SEQ ID NO: 16 (antibody, V domains shown)
VH: VKLQESGPELKKPGETVKISCKASGYTFTDYSMHWVKQAPGKGLKWMGWINTETGEPTYADDFKGRFAFSLETSASTAYLQINNLKNEDTATYFCARTAVYWGQGTTVTVSS
VL: DIQMTQSPSSLSASLGERVSLTCRASQEISVSLSWLQQEPDGTIKRLIYATSTLDSGVPKRFSGSRSGSDYSLTISSLESEDFVDYYCLQYASYPWTFGGGTKLEIK
Take B1: the “expression of Wnt receptors” value in assay [5] (EpAb2-6, LGK974 or combination) was “partially decrease”. Besides, in assay [2] (HT29 cells, 20 µg/mL EpAb2-6, 400 ng/mL LGK974 or combination, 10 days), the colony formation result is listed as “decreased”. For the same molecule, in assay [6] (SW620 cells, LGK974, EpAb2-6 or combined treatment), the LRP5/6 phosphorylation entry is on record as “could decrease LRP5/6 phosphorylation”. Moreover, the “expression of pluripotency factors” value in assay [7] (LGK974, EpAb2-6 or combined treatment) is reported as “decreased pluripotency factor expressions”. The “nuclear β-Catenin” value in assay [3] (wild-type HCT116 cells, 20 μg/mL EpAb2-6 for 6 h, 400 ng/mL LGK974 for 9 h or combination) is on record as “significantly decreased nuclear β-Catenin signal”. Moreover, the tumorsphere formation result in assay [4] (HCT116 and HT29 cells, 20 μg/mL EpAb2-6, 400 ng/mL LGK974 or combination, 10 days) is “decreased”. The cancer stemness properties result in assay [4] (summary statement, CRC cells, tumorsphere and colony formation) is recorded as “partially attenuate cancer sternness properties”.

B2: EpEX: extracellular domain of EpCAM, produced in house by Expi293 Expression System (protein)
chain: QEECVCENYKLAVNCFVNNNRQCQCTSVGAQNTVICSKLAAKCLVMKAEMNGSKLGRRAKPEGALQNNDGLYDPDCDESGLFKAKQCNGTSMCWCVNTAGVRRTDKDTEITCSERVRTYWIIIELKHKAREKPYDSKSLRTALQKEITTRYQLDPKFITSILYENNVITIDLVQNSSQKTQNDVDIADVAYYFEKDVKGESLFHSKKMDLTVNGEQLDLDPGQTLIYYVDEKAPEFSMQGLKAGVIAVIVVVVIAVVAGIVVLVISRKKRMAKYEKAEIKEMGEMHRELNA
With B2, the TCF activity result in assay [1] (EpEX-treated EpCAM-knockdown and knockout HCT116 cells) was “significantly rescued the phenomenon”; in assay [1] (setting [8]), “could increase”. Also, in assay [5] (setting [9]), the “expression of Wnt receptors” value is reported as “upregulated expressions of Wnt receptors”. The colony formation entry in assay [2] (setting [10]) is recorded as “reverted to wild-type levels”. For the same molecule, the colony formation capacity entry in assay [2] is “enhanced”. Moreover, the LRP5/6 phosphorylation result in assay [6] (setting [11]) was “increased LRP5/6 phosphorylation”. Besides, the “expression of pluripotency factors” value in assay [7] (EpEX, Wnt3A or combination) is recorded as “induced expressions of pluripotency factors”. Further, the “nuclear accumulation of β-Catenin” value in assay [3] (shEpCAM or KO-EpCAM HCT116 cells treated with exogenous EpEX) is “significant increase in nuclear accumulation of β-Catenin”. Also, the “nuclear translocation of β-Catenin” value in assay [3] (setting [12]) is listed as “could increase”. The tumorsphere formation entry in assay [4] (setting [10]) was “reverted to wild-type levels”. For the same molecule, the sphere formation capacity result in assay [4] is recorded as “enhanced”.

B3: Wnt3A: recombinant Wnt3A (R & D systems) (protein, UniProt P56704 19-352, looked up)
Protein Wnt-3a: SYPIWWSLAVGPQYSSLGSQPILCASIPGLVPKQLRFCRNYVEIMPSVAEGIKIGIQECQHQFRGRRWNCTTVHDSLAIFGPVLDKATRESAFVHAIASAGVAFAVTRSCAEGTAAICGCSSRHQGSPGKGWKWGGCSEDIEFGGMVSREFADARENRPDARSAMNRHNNEAGRQAIASHMHLKCKCHGLSGSCEVKTCWWSQPDFRAIGDFLKDKYDSASEMVVEKHRESRGWVETLRPRYTYFKVPTERDLVYYEASPNFCEPNPETGSFGTRDRTCNVSSHGIDGCDLLCCGRGHNARAERRREKCRCVFHWCCYVSCQECTRVYDVHTCK
B3: the TCF activity result in assay [1] (setting [8]) is on record as “could increase”. Further, the “expression of Wnt receptors” value in assay [5] (setting [9]) is listed as “upregulated expressions of Wnt receptors”. For the same molecule, the colony formation capacity result in assay [2] is reported as “enhanced”. Besides, the LRP5/6 phosphorylation result in assay [6] (setting [11]) is recorded as “increased LRP5/6 phosphorylation”. Further, the “expression of pluripotency factors” value in assay [7] (EpEX, Wnt3A or combination) is on record as “induced expressions of pluripotency factors”. In addition, the “nuclear translocation of β-Catenin” value in assay [3] (setting [12]) is listed as “could increase”. The sphere formation capacity entry in assay [4] is listed as “enhanced”.

The values above are taken from patent US20250129146A1, “COMBINED CANCER THERAPY WITH AN EPITHELIAL CELL ADHESION MOLECULE (EPCAM) INHIBITOR AND A WNT INHIBITOR” (ACADEMIA SINICA, priority 2021, published 2025).
